Measurements taken from article PMC8615271.

Molecular target: PDI and ERp72 (human)
Test: ITC; 280 µM P5 Cys55/58/190/193Ala mutant in the syringe (50 mM HEPES pH 7.2, 150 mM NaCl) titrated into 40 µM PDI or ERp72 in the cell (50 mM HEPES pH 7.2); 30 °C; one set of sites model

- Kd: 2.4 to 4.1 µM
B1: Catalytically-inactive P5 (Cys55/58/190/193Ala) mutant (enzyme)
chain: LYSSSDDVIELTPSNFNREVIQSDSLWLVEFYAPWAGHAQRLTPEWKKAATALKDVVKVGAVDADKHHSLGGQYGVQGFPTIKIFGSNKNRPEDYQGGRTGEAIVDAALSALRQLVKDRLGGRSGGYSSGKQGRSDSSSKKDVIELTDDSFDKNVLDSEDVWMVEFYAPWAGHAKNLEPEWAAAASEVKEQTKGKVKLAAVDATVNQVLASRYGIRGFPTIKIFQKGESPVDYDGGRTRSDIVSRALDLFSDNAPPPELLEIINEDIAKRTCEEHQLCVVAVLPHILDTGAAGRNSYLEVLLKLADKYKKKMWGWLWTEAGAQSELETALGIGGFGYPAMAAINARKMKFALLKGSFSEQGINEFLRELSFGRGSTAPVGGGAFPTIVEREPWDGRDGELPVEDDIDLSDVELDDLGKDEL
